B1: Catenin beta-1 (Homo sapiens), P35222 (parent)
chain: MATQADLMELDMAMEPDRKAAVSHWQQQSYLDSGIHSGATTTAPSLSGKGNPEEEDVDTSQVLYEWEQGFSQSFTQEQVADIDGQYAMTRAQRVRAAMFPETLDEGMQIPSTQFDAAHPTNVQRLAEPSQMLKHAVVNLINYQDDAELATRAIPELTKLLNDEDQVVVNKAAVMVHQLSKKEASRHAIMRSPQMVSAIVRTMQNTNDVETARCTAGTLHNLSHHREGLLAIFKSGGIPALVKMLGSPVDSVLFYAITTLHNLLLHQEGAKMAVRLAGGLQKMVALLNKTNVKFLAITTDCLQILAYGNQESKLIILASGGPQALVNIMRTYTYEKLLWTTSRVLKVLSVCSSNKPAIVEAGGMQALGLHLTDPSQRLVQNCLWTLRNLSDAATKQEGMEGLLGTLVQLLGSDDINVVTCAAGILSNLTCNNYKNKMMVCQVGGIEALVRTVLRAGDREDITEPAICALRHLTSRHQEAEMAQNAVRLHYGLPVVVKLLHPPSHWPLIKATVGLIRNLALCPANHAPLREQGAIPRLVQLLVRAHQDTQRRTSMGGTQQQFVEGVRMEEIVEGCTGALHILARDVHNRIVIRGLNTIPLFVQLLYSPIENIQRVAAGVLCELAQDKEAAEAIEAEGATAPLTELLHSRNEGVATYAAAVLFRMSEDKPQDYKKRLSVELTSSLFRTEPMAWNETADLGLDIGAQGEPLGYRQDDPSYRSFHSGGYGQDALGMDPMMEHEMGGHHPGADYPVDGLPDLGHAQDLMDGLPPGDSNQLAWFDTDL

Variants of: B1
Conditions: with mlp3b_human MAP1LC3B

Variant | effect of a mutation on the interaction
W504A;I507A | disrupting interaction

Variants of: B1
Conditions: with mlp3b_human MAP1LC3B
Remark: another data set of the same source

Variant | effect of a mutation on the interaction
W504A;I507A | decreasing interaction
